The text below walks through data of patent US20060246471A1 (published 2006).

Sequences and labels used below:
T1: ML-IAP-BIR (amino acids 63-179 of accession number BIR7_HUMAN), bacterially expressed from pET15b (human, UniProt Q96CA5 63-179)
T1 construct: range 63-179; Purified protein used in the fluorescence polarization assays; also called MLBIR; wild-type ML-IAP-BIR; not shown: N-terminal His6-tag from the pET15b vector
T1 sequence (looked up): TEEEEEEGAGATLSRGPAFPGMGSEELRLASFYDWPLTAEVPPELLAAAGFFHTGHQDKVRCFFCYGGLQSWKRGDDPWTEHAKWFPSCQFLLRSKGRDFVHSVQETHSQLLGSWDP

T2: MLBIR-Q (C-terminally truncated version of ML-IAP-BIR with the same number of amino acids as MLXBIR3 and … (human, UniProt Q96CA5 63-172))
T2 construct: range 63-172; also called C-terminal truncated wild type; not shown: N-terminal His6-tag from the pET15b vector
T2 sequence (looked up): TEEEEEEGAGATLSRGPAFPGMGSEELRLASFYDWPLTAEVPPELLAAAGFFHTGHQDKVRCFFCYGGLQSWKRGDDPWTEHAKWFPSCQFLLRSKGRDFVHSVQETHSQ

B1: wild-type mature Smac protein (amino acids 56-239 of Smac/DIABLO, C-terminal His6 fusion) (other, human, UniProt Q9NR28 56-239, looked up)
chain: AVPIAQKSEPHSLSSEALMRRAVSLVTDSTSTFLSQTTYALIEAITEYTKAVYTLTSLYRQYTSLLGKMNSEEEDEVWQVIIGARAEMTSKHQEYLKLETTWMTAVGLSEMAAEAAYQTGADQASITARNHIQLVKLQVEEVHQLSRKAETKLAEAQIEELRQKTQEEGEERAESEQEAYLRED
notes: range 56-239; not shown: C-terminal His6 fusion from pet21b+
B2: MLXBIR3SG (ML-IAP chimera: ML-IAP framework with XIAP-BIR3 residues 336-348 in place of 160-179, and S150G) (other)
chain: MGSSHHHHHHSSGLVPRGSHMLETEEEEEEGAGATLSRGPAFPGMGSEELRLASFYDWPLTAEVPPELLAAAGFFHTGHQDKVRCFFCYGGLQSWKRGDDPWTEHAKWFPGCQFLLRSKGQEYINNIHLTHSL
notes: also called ML-IAP-BIR/XIAP-BIR3 chimera protein; His6-tagged MLXBIR3SG
B3: full-length ML-IAP plus a N-terminal His6-tag (protein, human, UniProt Q96CA5 1-298, looked up, not shown: small tags and cut ends)
chain: MGPKDSAKCLHRGPQPSHWAAGDGPTQERCGPRSLGSPVLGLDTCRAWDHVDGQILGQLRPLTEEEEEEGAGATLSRGPAFPGMGSEELRLASFYDWPLTAEVPPELLAAAGFFHTGHQDKVRCFFCYGGLQSWKRGDDPWTEHAKWFPSCQFLLRSKGRDFVHSVQETHSQLLGSWDPWEEPEDAAPVAPSVPASGYPELPTPRREVQSESAQEPGGVSPAEAQRAWWVLEPPGARDVEAQLRRLQEERTCKVCLDRAVSIVFVPCGHLVCAECAPGLQLCPICRAPVRSRVRTFLS

Assay [1] has as its target B2. In words: fluorescence polarization competition against Hid-FAM probe. As to the method: (§1) Samples were read after a 10-minute incubation. Fluorescence polarization values were plotted as a function of the antagonist concentration, and the IC₅₀ values were obtained by fitting the data to a 4-parameter equation using Kaleidagraph™ software (Synergy software, Reading, Pa.). Inhibition constants (Kᵢ) for the antagonists were determined from the IC₅₀ values (Keating et al., (2000) Putting the pieces together: contribution of fluorescence polarization assays to small-molecule lead optimization. Proceedings of SPIE: In-Vitro Diagnostic Instrumentation.).
On the technique in general: In fluorescence polarisation assays a small probe gives low polarisation when free and higher when bound to something large.

The target of assay [2] is T3, XIAP-BIR3 (third BIR of XIAP, residues 252-348) (human, UniProt P98170 252-348).
T3 construct: range 252-348; No tags are stated; also called XIAP-BIR3 protein
The assay is described as above. As to the method:
as §1

Assay [3] concerns the target T1, ML-IAP-BIR (amino acids 63-179 of …). The description is as above. As to the method: as §1
Assay [4] has as its target T2, MLBIR-Q (C-terminally truncated version …). The assay is described as above. As to the method: as §1
The target of assay [5] is B2. Description: TR-FRET competition against biotinylated Smac peptide AVPIAQK-biotin on His6-tagged MLXBIR3SG. As to the method: Time-Resolved Fluorescence Resonance Energy Transfer (TR-FRET) competition experiments (Kolb et al., (1996) J. Biomol. Screening 1 (4): 203-210) were performed on the Wallac Victor2 Multilabeled Counter Reader™ (Perkin Elmer Life and Analytical Sciences, Inc.). […] Alternatively, this cocktail can be made using optimized concentrations of europium-labeled anti-His₆ antibody (Perkin Elmer) instead of the anti-His₆ antibody-allophycocyanin conjugate, and streptavidin-allophycocyanin conjugate (Perkin Elmer) instead of europium-labeled streptavidin. The reagent cocktail was incubated at room temperature for 30 minutes. […] After a 90 minute incubation at room temperature, the fluorescence was read with filters for the excitation of europium (340 nm) and for the emission wavelengths of europium (615 nm) and allophycocyanin (665 nm). Data are calculated as a ratio of the emission signal of allophycocyanin at 665 nm to the emission signal of europium at 615 nm (these ratios are multiplied by a factor of 10,000 for ease of data manipulation). The resulting values were plotted as a function of antagonist concentration and fit to a 4-parameter equation using Kaleidagraph™ software (Synergy Software, Reading, Pa.). Indications of antagonist potency were determined from the IC₅₀ values.
For orientation: Time-resolved FRET reads energy transfer from a long-lived donor to a nearby acceptor.

Assay [6] concerns the target ΔCARD human caspase 9 (lacking the first 138 residues) with Ala substitutions at residues 304 to 306 (human) (UniProt P55211). Description: caspase-9 enzyme inhibition (Ac-LEHD-AFC hydrolysis), Ki(app); too low to measure accurately.
The target in assay [7] is T4, 5-carboxyflourescein-conjugated AVPFAK(5-FAM)K (Hid-FAM) (5-carboxyfluorescein (5-FAM) on Lys 6).
T4 construct: also called HID-FAM probe; Hid-based 5-carboxyfluorescein-labeled peptide
Description: fluorescence polarization, BIR protein titrated onto 5 nM Hid-FAM. As to the method:
Polarization experiments were performed on an Analyst™ HT 96-384 (Molecular Devices Corp.). […] The reactions were read after an incubation time of 10 minutes at room temperature with standard cut-off filters for the fluorescein fluorophore (λₑₓ=485 nm; λₑₘ=530 nm) in 96-well black HE96 plates (Molecular Devices Corp.). Fluorescence polarization values were plotted as a function of the protein concentration, and the EC₅₀ values were obtained by fitting the data to a 4-parameter equation using Kaleidagraph™ software (Synergy software, Reading, Pa.). The apparent Kd values were determined from the EC₅₀ values.

In assay [8] the target is ΔCARD human caspase 9 (lacking the first 138 residues) with Ala substitutions at residues 304 to 306 (human) (UniProt P55211). Description: caspase-9 enzyme inhibition.

Bounds are passed on as bounds.

For orientation: IC50 means the concentration that gives 50% inhibition. In general, Kd refers to the constant that tells how readily two partners part at equilibrium.

Chain of ΔCARD human caspase 9 (lacking the first 138 residues) with Ala substitutions at residues 304 to 306 (human) (P55211 139-416, stated change not applied): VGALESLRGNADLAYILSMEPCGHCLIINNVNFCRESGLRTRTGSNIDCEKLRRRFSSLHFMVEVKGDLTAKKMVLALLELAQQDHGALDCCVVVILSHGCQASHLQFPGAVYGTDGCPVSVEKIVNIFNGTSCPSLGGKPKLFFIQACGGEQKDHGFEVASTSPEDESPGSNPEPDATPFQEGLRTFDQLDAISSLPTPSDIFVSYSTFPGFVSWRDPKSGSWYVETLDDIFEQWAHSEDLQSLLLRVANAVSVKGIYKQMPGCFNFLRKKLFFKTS
T3 sequence (P98170 252-348 limits assumed): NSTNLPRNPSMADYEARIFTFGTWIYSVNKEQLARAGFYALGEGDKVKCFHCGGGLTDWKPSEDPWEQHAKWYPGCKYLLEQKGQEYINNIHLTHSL

In the case of B1, the Ki in assay [1] worked out at 59 nM; in assay [2], 320 nM; in assay [3], 26 nM; in assay [4], 54 nM.

As to AVPW (also called AVPW (Hid)) [AVPW peptide], in assay [5], the concentration for half-maximal inhibition (IC50) came to 150 nM.

In assay [6], B2 had a Ki of less than 1 nM. Further, the dissociation constant (Kd) in assay [7] worked out at 30 nM.

Take B3: in assay [8], the fold lower potency for inhibition of caspase-9 activity relative to XIAP was determined as 300 fold.
